# Values joined by “and” are separate entries in the source; they are usually repeats but may differ in a detail not shown here. Equal values may be shown once.
# Biological target: T1, Mesothelin (Homo sapiens (Human), UniProt Q13421 296-598)
# T1 construct: Soluble analyte in SPR at 0.15-111 nM
# Experiment: SPR, antibody as ligand, mesothelin as analyte
# T1 sequence (Q13421 other isoform, or with tags, fused parts or gaps limits assumed): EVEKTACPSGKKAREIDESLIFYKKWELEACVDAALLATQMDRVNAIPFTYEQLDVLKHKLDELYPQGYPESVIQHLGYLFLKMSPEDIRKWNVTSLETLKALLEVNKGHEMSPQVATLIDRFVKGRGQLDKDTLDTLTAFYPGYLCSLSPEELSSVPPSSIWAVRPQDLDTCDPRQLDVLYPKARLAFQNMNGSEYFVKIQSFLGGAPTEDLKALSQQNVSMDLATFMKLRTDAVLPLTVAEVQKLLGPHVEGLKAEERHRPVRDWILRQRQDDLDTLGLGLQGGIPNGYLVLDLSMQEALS
binder,measurement,value
"7B1 IgG1 LALA anti-mesothelin antibody (antibody, V domains shown, Tested as IgG1 with LALA mutations; It was the immobilised ligand in the SPR; two samples were measured; also called 7B1 IgG1 LALA AA cAb7385-10.16; 7b1 IgG1 LALA - Sample 1) VH: EVHLVESGGGLVQPGGSLRLSCAASGFTFSRYWMSWVRQAQGKGLEWVASIKQAGSEKTYVDSVKGRFTISRDNAKNSLSLQMNSLRAEDTAVYYCAREGAYYYDSASYYPYYYYYSMDVWGQGTTVTVSS VL: not shown",Kd,0.912 nM and 0.658 nM
same,koff,0.000189 s⁻¹ and 0.000132 s⁻¹
same,kon,207000 M⁻¹ s⁻¹ and 201000 M⁻¹ s⁻¹
